Assay results reported in patent US20210093714A1, “Combination and method for inhibiting the cancer cells” (NATIONAL TAIWAN UNIVERSITY, priority 2013, published 2021).

What was measured:
EGFR/c-Cbl complex = biological target: T1, EGFR/c-Cbl complex (Homo sapiens, UniProt P00533); experiment: Immunoprecipitation/western blot of EGFR/c-Cbl complex formation; type: cell-based; conditions: CL1-5 with MG132; 0 to 60 minutes; FIG. 4D
T1 construct: expressed in transfected cells; host or cells: CL1-5 (EGFR endogenous; HA-c-Cbl transiently transfected)
Procedure: (§1) Proteins ([…]) were separated by SDS-PAGE and transferred to a polyvinylidene difluoride membrane (Immobilon-P membrane; Millipore) by electrotransfer. The blot was blocked in a solution of 5% skim milk and 0.1% Tween 20 in PBS. Thereafter, membrane-bound proteins were probed with the following primary antibodies: CCN2, DAPK, phosphorylated ERK, ERK-1, phosphorylated Akt, Akt, TrkA, phosphorylated-Src, Src, b-actin, a-tubulin (Santa Cruz Biotechnology), p-EGFR, and EGFR (Cell Signaling Technology, Danvers, MA, USA). The membrane was washed and then incubated with HRP-conjugated secondary antibodies for 30 min. Enhanced chemiluminescence reagents (Amersham Pharmacia Biotech, Piscataway, N.J., USA) were employed to depict the protein bands on membranes. The light was captured on Kodak X-Omat Blue autoradiography film (PerkinElmer Life Sciences, Boston, Mass., USA).
(§2) CCN2 transfectants were seeded overnight and incubated in serum-free media for 24 h. For immunoprecipitations, cells were lysed in an RIPA buffer (150 mM NaCl, 50 mM Tris-base, 5 mM EDTA, 1% NP-40, and 0.25% deoxycholate; pH 7.4). Protein concentrations were determined using the BCA protein assay kit (Pierce, Rockford, Ill., USA). […]

c-Src = experiment: Western blot of c-Src autophosphorylation; type: cell-based, human; conditions: CL1-5; 0 to 60 minutes; FIG. 3E
Procedure: as §1
Next, the effect of CCN2 on the formation of EGFR/Src complex and the phosphorylation of Src in the lung adenocarcinoma cell lines, CL1-5, A549 and CL1-0/siCCN2, was observed by western blot analysis, the results shown in FIGS. 3C to 3E.

[1] = system: lung adenocarcinoma cell line, CL1-5; experiment: In vivo anoikis, high-frequency ultrasonic imaging, s.c. CL1-5; conditions: nude mice, rCCN2 i.p. 1 mg/kg per day, FIG. 5F
Excerpt: (§3) Mice were anesthetized with isoflurane inhalation, and biofluorescence images were photographed with a CCD camera (IVIS; Xenogen Corporation, Caliper Life Sciences, Hopkinton, Mass., USA) at specific times. Imaging times ranged from 1 to 60 s, depending on the amount of fluorescence activity. Biofluorescence from the region of interest (ROI) was defined manually, and the data were expressed as photon flux (photons/s/cm^2/steradian). Background photon flux was defined using an ROI from a mouse that was not given an […]. injection of cancer cells. All biofluorescence data were collected and analyzed using IVIS. Celltracker dye was purchased from Molecular Probes, Invitrogen Corporation.
Next, the effect of rCCN2 on anoikis in the lung adenocarcinoma cell line, CL1-5, (in vivo) was observed by high-frequency ultrasonic imaging, the results shown in FIG. 5F(top right indicated as the amplification view of the yellow squares). In this embodiment, the lung adenocarcinoma cell line, CL1-5, was injected into the s.c. region of nude mice and the mice was treated i.p. either with rCCN2 (1 mg/kg per day) or a control solution (citrate buffer), and anoikis in the lung adenocarcinoma cell line, CL1-5,(in vivo) was observed by high-frequency ultrasonic imaging.

[2] = biological target: T2, Epidermal growth factor receptor (EGFR) (human, UniProt P00533 25-1210); experiment: FACS on CL1-5 and A549 cells (legend of FIG. 2B)
T2 construct: whole, on cells; FACS and immunoprecipitation used EGFR in or on cells
Procedure: After washing, cells were stained with an FITC-labelled goat anti-rabbit secondary antibody (Santa Cruz Biotechnology) for 30 min in the dark. Analysis was then conducted with an FACS Calibur cytometer (Collaborative Biomedical, BD Biosciences).

wild-type EGFR = experiment: Western blot of EGFR expression, H1299 wild-type EGFR; type: cell-based, human; conditions: H1299 lung adenocarcinoma cell lines (wild-type EGFR); 0 minutes to 4 hours; FIG. 7
Procedure: as §1
First, the effect of rCCN2 on the wild-type EGFR […] lung adenocarcinoma cell line, the mutated-type EGFR H1299 lung adenocarcinoma cell line, and the mutated-type EGFR H1975 lung adenocarcinoma cell line was observed by western blot analysis, the results shown in FIG. 7(Cell lysates of H1299 transfectants or H1975 cells were immunoblotted with anti-EGFR).

[3] = system: lung adenocarcinoma cell line, CL1-5; experiment: In vivo metastasis of i.v. injected CL1-5, celltracker probe; conditions: nude mice, i.v. CL1-5; CCN2 1 mg/kg per day; FIG. 5G
Excerpt: as §3
Cells were washed and resuspended in PBS. […] The mice were injected i.v. with cells so that we could measure the metastatic potential and perform biofluorescence imaging. The mice were killed after 8 weeks, and all of their organs were examined for metastasis formation. The lungs were removed and fixed in 10% formalin fixative. The number of lung-tumor colonies was counted under a dissecting microscope. […]

EGFR = experiment: Western blot of EGFR expression in PC9/WT and PC9/IR; type: cell-based; conditions: 100 ng/mL rCCN2, 0 to 12 hours, FIG. 8C
Procedure: as §1

β-pix/c-Cbl complex = experiment: Immunoprecipitation/western blot of β-pix/c-Cbl complex and β-pix phosphorylation; type: cell-based, human; conditions: CL1-5; 0 to 60 minutes; FIG. 4G
Procedure: as §1, §2

B1: Connective tissue growth factor (CCN2), wild-type full length (ligand, human, UniProt P29279 27-349, looked up)
chain: QNCSGPCRCPDEPAPRCPAGVSLVLDGCGCCRVCAKQLGELCTERDPCDPHKGLFCHFGSPANRKIGVCTAKDGAPCIFGGTVYRSGESFQSSCKYQCTCLDGAVGCMPLCSMDVRLPSPDCPFPRRVKLPGKCCEEWVCDEPKDQTVVGPALAAYRLEDTFGPDPTMIRANCLVQTTEWSACSKTCGMGISTRVTNDNASCRLEKQSRLCMVRPCEADLEENIKKGKKCIRTPKISKPIKFELSGCTSMKTYRAKFCGVCTDGRCCTPHRTTTLPVEFKCPDGEVMKKNMMFIKTCACHYNCPGDNDIFESLYYRKMYGDMA
notes: also called Recombinant CCN2; exogenous CCN2
formation of EGFR/c-Cbl complex (EGFR/c-Cbl complex): gradually increase the formation of EGFR/c-Cbl complex
autophosphorylation of c-Src Y416 (c-Src): gradually inhibit the autophosphorylation of c-Src^Y416
anoikis in vivo [1]: clearly appeared anoikis
binding result [2]: binds
expression of EGFR (wild-type EGFR): inhibit the expression of EGFR more significantly
celltracker signals in lungs [3]: much weaker
number of metastatic lung nodules [3]: significantly reduced
expression of EGFR (EGFR; attached PC9/IR): suppressed more significantly
expression of EGFR (EGFR; attached PC9/WT): suppressed more significantly
formation of β-pix/c-Cbl complex (β-pix/c-Cbl complex): gradually reduce the formation of β-pixie-Chi complex
β-pix phosphorylation (β-pix/c-Cbl complex): reduces β-pix phosphorylation
